Laboratory results taken from paper PMC5679434 (Nature methods, 2017).

Molecular target: Thermoplasma acidophilum 20S proteasome α-subunit (Thermoplasma acidophilum, UniProt P25156 1-233)
Assay: cryo-EM structure

Sequence of Thermoplasma acidophilum 20S proteasome α-subunit (P25156 whole entry): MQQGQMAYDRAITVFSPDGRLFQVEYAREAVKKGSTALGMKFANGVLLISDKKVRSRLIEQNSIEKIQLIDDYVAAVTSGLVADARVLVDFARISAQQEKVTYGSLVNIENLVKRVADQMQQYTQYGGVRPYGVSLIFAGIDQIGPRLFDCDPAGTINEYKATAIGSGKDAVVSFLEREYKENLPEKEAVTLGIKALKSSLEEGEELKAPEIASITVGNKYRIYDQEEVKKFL

binding result: binds
B1: Thermoplasma acidophilum 20S proteasome β-subunit (natural protein, UniProt P28061 9-211, looked up)
chain: TTTVGITLKDAVIMATERRVTMENFIMHKNGKKLFQIDTYTGMTIAGLVGDAQVLVRYMKAELELYRLQRRVNMPIEAVATLLSNMLNQVKYMPYMVQLLVGGIDTAPHVFSIDAAGGSVEDIYASTGSGSPFVYGVLESQYSEKMTVDEGVDLVIRAISAAKQRDSASGGMIDVAVITRKDGYVQLPTDQIESRIRKLGLIL
